The numbers were not newly measured in publication PMC5830169, which cites them from elsewhere.

This series has as its target rhodopsin (UniProt P02699).
Sequence of UniProt P02699 (P02699 whole entry): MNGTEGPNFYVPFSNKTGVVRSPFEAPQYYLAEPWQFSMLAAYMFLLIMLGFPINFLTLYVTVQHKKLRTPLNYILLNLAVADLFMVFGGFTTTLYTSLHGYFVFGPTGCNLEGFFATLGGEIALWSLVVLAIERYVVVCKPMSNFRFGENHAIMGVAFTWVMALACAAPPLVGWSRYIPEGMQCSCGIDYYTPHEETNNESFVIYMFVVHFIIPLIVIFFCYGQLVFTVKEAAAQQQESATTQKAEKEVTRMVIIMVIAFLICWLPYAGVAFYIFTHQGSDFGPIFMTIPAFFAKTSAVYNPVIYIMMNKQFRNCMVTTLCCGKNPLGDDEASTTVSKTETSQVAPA

In the case of visual arrestin (from UniProt P10523), the Kd (commonly the equilibrium constant for the complex coming apart) is 50 nM.
